20 molecules from article PMC9876794 (2022) can be followed below.

For this assay, the target named is SARS-CoV-2 spike RBD (WT) (Severe acute respiratory syndrome …, UniProt P0DTC2). The assay is described as follows: BLI.

Where a chain is given by its changes, count along the chain named.

B1: B21 (antibody, V domains shown)
VH: EVKLEESGGGLVQPGGSMKLSCAASGFTFSDAWMDWVRQSPEKGLEWVAEIRNKANNHATYYAESVKGRFTISRDDSKSSVYLQMNSLRAEDTGIYYCTLFLTGHFDYWGQGTTLTVSS
VL: DIVMTQSQKFMSTSVGDRVSITCKASQNVRTAVAWYQQKPGQSPKALIYLASNRHTGVPDRFTGSGSGTDFTLTISNVQSEDLADYFCLQHWNYPLTFGSGTKLEIK
One may read the Kd as the free concentration of one partner at which half of the binding sites on the other are occupied at equilibrium, for simple one-to-one binding. The low end stands for a tighter complex, the high end for a looser complex. The molecule B1 gave a Kd of 17.2 nM.

B2: B43 (antibody, V domains shown)
VH: DVQLQESGPGLVKPSQSLSLTCSVTGYSITSGYYWNWIRQSPGNKLEWMGYISYDGSNKYNPSLKNRISITRDTSKNQFFLKLNSVTTEDTAIYYCARWDKGAMDYWGQGTSVTVSS
VL: B1 VL with S65G, S100A, I106L
For B2, the Kd was determined as 40.7 nM.

B3: B23 (antibody, V domains shown)
VH: EVKLEESGGGLVQPGGSMKLSCAASGFTFSDAWMDWVRQSPEKGLEWIAEIRNKANNHATYYAESVKGRFTISRDDSKSSVYLQMNSLRAEDTGIYYCTRGLTGPYFDYWGQGTTLTVSS
VL: B1 VL with S20T, S100A, I106L
B3 showed an equilibrium dissociation constant (Kd) of 211 nM.

B4: B02 (antibody, V domains shown)
VH: QVQLQQPGAELVKPGASVKVSCKASGYTFTSYWMHWVKQRPGQGLEWIGRIHPSDSDTNYNQKFKGKATLTVDKSSSTAYMQLSSLTSEDSAVYYCAMDWDVDYWGQGTTLTVSS
VL: QIVLTQSPALMSASPGEKVTMTCSASSSVSYMYWYQQKPRSSPKPWIYLTSNLASGVPARFSGSGSGTSYSLTISSMEAEDAATYYCQQWSSNPFTFGSGTKLEIK
Take B4: the Kd was 580 nM.

B5: B42 (antibody, V domains shown)
VH: B4 VH with G66D, Y95F, A97V, M98I, W100H, D101Y, V102F
VL: DIVMSQSPSSLAVSAGEKVTMSCKSSQSLLNSRTRKNYLAWYQQKPGQSPKLLIYWASTRESGVPDRFTGSGSGTDFTLTISSVQAEDLAVYYCKQSYNLYTFGGGTKLEIK
As for B5, the dissociation constant (Kd) was 91.8 nM.

B6: B44 (antibody, V domains shown)
VH: QVQLQQPGAELVKPGASVKVSCKASGYTFTSYWMHWVKQRPGQGLEWIGRIHPSDSDTNYNQKFKGKATFTVDKSSSTAYMQLSSLTSEDSAVYYCAIGDGRDFDYWGQGTTLTVSS
VL: DVVLTQTPLSLPVNIGDQASISCKSTKSLLNSDGFTYLDWYLQKPGQSPQLLIYLVSNRFSGVPDRFSGSGSGTDFTLKISRVEAEDLGVYYCFQSNYLPLTFGSGTKLEIK
In turn, B6 returned a Kd of 123 nM.

B7: B01 (antibody, V domains shown)
VH: B6 VH with V18M, F70L, D100G
VL: B6 VL with V56F, L101W, S105G
B7 yielded a Kd of 18.7 nM.

B8: B06 (antibody, V domains shown)
VH: QAYLQQSGAELVRPGASVKMSCKASGYTFTSYNMHWVKQTPRQGLEWIGAFYPGNGDTSYNQKFKGKATLTVDKSSSTAYMQLSSLTSEDSAVYFCARDGYPYYYAMDYWGQGTSVTVSS
VL: DIKMTQSPSSMYASLGERVTITCKASQDINSFLSWFQQKPGKSPKTLIYRANRLVDGVPSRFSGSGSGQDYSLTISSLEYEDMGIYYCLQYDEFPWTFGGGTKLEIK
As for B8, binding was characterised by a dissociation constant (Kd) of 110 nM.

B9: B04 (antibody, V domains shown)
VH: QVQLKQSGAELVRPGASVKLSCKASGYTFTDYYITWVKQRPGQGLEWIARICPGSGNTFYNEKFMGKATLTAEKSSSTAYMQLSSLTSEDSAVYFCARRGTLLYAFAYWGQGTLVTVSA
VL: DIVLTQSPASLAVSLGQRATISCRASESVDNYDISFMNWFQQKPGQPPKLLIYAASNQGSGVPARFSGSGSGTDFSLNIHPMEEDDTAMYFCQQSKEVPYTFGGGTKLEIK
B9: binding was characterised by a dissociation constant (Kd) of 100 nM.

B10: B26 (antibody, V domains shown)
VH: QVQLQQPGAELVKPGASVKMSCKASGYTFTSYWITWVKQRPGQGLEWIGDIYPGSGSTNYNEKFKSKATLTVDTSSSTAYMQLSSLTSEDSAVYYCARDWDYGSSYWYFDVWGTGTTVTVSS
VL: DIKMTQSPSSMYASLGERVTITCKASQDIKSYLSWYQQKPWKSPKTLIYYATSLADGVPSRFSGSGSGQDYSLTISSLASDDTATYYCLQHGESPYTFGGGTKLEIK
As to B10, binding was characterised by a dissociation constant (Kd) of 104 nM.

B11: B47 (antibody, V domains shown)
VH: EVQLQQSGPELVKPGASVKISCKASDYSFTGYYMNWVKQSPEKSLEWIGEINPSTGGTTYNQKFKAKATLTVDKSSSTAYMQLKSLTSEDSAVYYCARGSGAYWGQGTLVTVSA
VL: DIVLTQSPASLAVSLGQRATISCRASESVEYYGTSLMQWYQQKPGQPPKLLIYAASNVESGVPARFSGSGSGTDFSLNIHPVEEDDIAMYFCQQSRKVPYTFGGGTKLEIK
Turning to B11, the affinity, expressed as Kd, was 26.5 nM.

B12: B08 (antibody, V domains shown)
VH: B11 VH with D26G, S100G, G101A, A102D, Y103V, Q106T, L109T, A114S
VL: B11 VL with Y100W
B12 gave a Kd of 87.2 nM.

B13: A16 (antibody, V domains shown)
VH: DVQLQESGPGLVKPSQSLSLTCSVTGYSITSGYYWNWIRQFPGNKLEWMGYISYDGSNNYNPSLKNRISITRDTSKNQFFLKLNSVTTEDTATYYCARFHYGSRPRYWYFDVWGTGTTVTVSS
VL: DIQMTQTTSSLSASLGDRVTISCSASQGIRNYLNWYQQKPDGTVKLLIYYTSSLHSGVPSRFSGSGSGTDYSLTISNLEPEDIATYYCQQYSKLPWTFGGGTKLEIK
Turning to B13, the Kd stood at 140 nM.

B14: A11 (antibody, V domains shown)
VH: QVQLQQPGAELVKPGTSVKLSCKASGYTFTSYWMHWVKQRPGQGLEWIGMIHPNSGNTNYNEKFKSKATLTVDKSSSTAYMQLSSLTSEDSAVYYCADLGAWFAYWGQGTLVTVSA
VL: QIVLTQSPAIMSASPGEKVTMTCSASSSISYMHWYQQKPGTSPKRWIYDTSKLASGVPARFSGSGSGTSYSLTISSMEAEDAATYYCHQRSSYPWTFGGGTKLEIK
Turning to B14, the dissociation constant (Kd) came out at 7620 nM.

B15: A49 (antibody, V domains shown)
VH: QVQLQQSGSELARPGASVNLSCKASGYTFTSYGVSWVKQRTGQGLEWIGDIYPRSGNSYYNEKFKGKATLTADKSSSTAYMELRSLTSEDSAVYFCAREVYGYEFDYWGQGTTLTVSS
VL: DIQMTQTTSSLSASLGDRVTISCRASQDISNYLNWYQQKPDGTVQLLIYYTSRLHSGVPSRFSGSGSGTDYSLTISNLEQEDIATYFCQQGNTLPRTFGGGTKLEIK
The molecule B15 returned a Kd of 482 nM.

B16: A23 (antibody, V domains shown)
VH: QAYLQQSGAELVRPGASVKMSCKASGYTFTSYNMHWVKQTPRQGLEWIGAIYPGNGDTSYNQKFKDKATLTVDKSSSTAYMQLSSLTSGDSAVYFCARDYYGCSYGYFDVWGTGTTVTVSS
VL: B13 VL with R30S, W96Y
B16: binding was characterised by a dissociation constant (Kd) of 850 nM.

B17: B07 (antibody, V domains shown)
VH: QVQLQQSGPELVKPGASVKISCKASGYVFSSSWMNWVKQRPGKGLEWIGRIYPGDGETNYNGKFKGKATLTADKSSSTAYMQLSSLTSEDSAVYFCARFDYGYDGHVWGTGTTVTVSS
VL: DIVMTQSQKFMSTSVGDRVSVTCKASQNVGTNVAWYQQKPGQSPKALIYSASYLYSGVPDRFTGSGSGTDFTLTISNVQSEDLAEYFCQQYNSYPLLTFGAGTKLELK
B17 returned a Kd of 17700 nM.

B18: A21 (antibody, V domains shown)
VH: QVQLQQSGAELVKPGASVKISCKASGYSFSDYWMNWVKQRPGKGLEWIGQIFPGDGDTNYNGKFKGKAALTADKSSSTAYMQLSSLTSEDSAVYFCARRELNYFDYWGQGTTLTVSS
VL: QIVLTQSPAIMSASPGEKVTMTCSASSSVSYMFWYQQKPGSSPRLLIYDTSNLASGVPVRFSGSGSGTSYSLTVSRMEAEDAATYYCQQWSSYPLTFGSGTKLEIK
In turn, B18 gave a dissociation constant (Kd) of 138 nM.

B19: B45 (antibody)
chain 1: QVQLQQPGAELVKPGASVKVSCKASGYTFTSYWMHWVKQRPGQGLEWIGRIHPSDSDTNYNQKFKGKATLTVDKSSSTAYMQLCSLTSEDCAVYYCAIWEDYGVFYAMDYWGQGTSVTVSS
chain 2: DIVMTQSQKFMSTSVGDRVSVTCKASQNVGTNVAWYQQKPGQSPKALIYSASYRYSGVPDRFTGSGSGTDFTLTISNVQSEDLAEYFCQQYNSYPLTFGAGAKLELK
B19 registered a Kd of 837 nM.

B20: B46 (antibody, V domains shown)
VH: QVQLQQPGAELVKPGASVKVSCKASGYTFTSYWMHWVKQRPGQGLEWIGRIHPSDSDTNYNQNFKGKATLTVDKSSSTAYMQLSSLTSEDSAVYYCALDGYYGIWWGQGTLVTVSA
VL: B19 chain 2 with Y91C, A100G, A102T, L106I
As for B20, the Kd stood at 282 nM.
